Assay results reported in patent US20140178854A1.

Target: gp70 env protein of amphotropic MLV (4070A envelope), on purified viral particles (amphotropic murine leukemia virus (4070A envelope))
Assay: ELISA on plate-bound MLV, dilution factor 31250, Exp122-Ana Plate 1

Chain of gp70 env protein of amphotropic MLV (4070A envelope), on purified viral particles (amphotropic murine leukemia virus (4070A envelope)) (P21995 whole entry): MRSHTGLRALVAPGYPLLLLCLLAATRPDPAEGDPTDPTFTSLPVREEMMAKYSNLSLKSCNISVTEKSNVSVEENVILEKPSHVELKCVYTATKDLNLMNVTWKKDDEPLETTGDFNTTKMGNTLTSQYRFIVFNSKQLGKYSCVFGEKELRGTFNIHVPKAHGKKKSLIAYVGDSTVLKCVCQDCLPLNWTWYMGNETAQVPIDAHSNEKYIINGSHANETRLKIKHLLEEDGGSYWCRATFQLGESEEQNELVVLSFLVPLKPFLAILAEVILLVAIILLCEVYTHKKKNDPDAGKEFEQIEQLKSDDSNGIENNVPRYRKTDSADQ

“83A25 monoclonal antibody (rat IgG2a, anti-gp70)” showed a Mean OD of 0.289 OD.
